Reference: patent publication US12630600B2 (MEDIMMUNE LIMITED, priority 2022, dated 2026)
Starred links: 1 amine or outer side, 2 acyl side, 3 side chain; linkers in the order of their positions; H or OH if unused. Non-standard residues stand in square brackets, D forms with d. Groups on a side chain read outwards from the residue. No end group written: not given here. *: point of attachment. C20 diacid = O=C(O)CCCCCCCCCCCCCCCCCCC(=O)*; C18 diacid = O=C(O)CCCCCCCCCCCCCCCCC(=O)*; γGlu = O=C(O)[C@H](CCC(=O)[*:2])N[*:1]; αMeF = C[C@](N)(Cc1ccccc1)C(=O)O; AEEA = NCCOCCOCC(=O)O; Aib = CC(C)(N)C(=O)O

B1: Peptide 475 (peptide)
peptide: H[Aib]QGTFTSDVSK[αMeF]LDTK([AEEA-AEEA-γGlu-C20 diacid])RARDFVQWLLA[Aib]G-NH2
modifications: N-terminus assumed
SMILES: CC(C)C[C@H](NC(=O)[C@H](CC(C)C)NC(=O)[C@H](Cc1c[nH]c2ccccc12)NC(=O)[C@H](CCC(N)=O)NC(=O)[C@@H](NC(=O)[C@H](Cc1ccccc1)NC(=O)[C@H](CC(=O)O)NC(=O)[C@H](CCCNC(=N)N)NC(=O)[C@H](C)NC(=O)[C@H](CCCNC(=N)N)NC(=O)[C@H](CCCCNC(=O)COCCOCCNC(=O)COCCOCCNC(=O)CC[C@H](NC(=O)CCCCCCCCCCCCCCCCCCC(=O)O)C(=O)O)NC(=O)[C@@H](NC(=O)[C@H](CC(=O)O)NC(=O)[C@H](CC(C)C)NC(=O)[C@](C)(Cc1ccccc1)NC(=O)[C@H](CCCCN)NC(=O)[C@H](CO)NC(=O)[C@@H](NC(=O)[C@H](CC(=O)O)NC(=O)[C@H](CO)NC(=O)[C@@H](NC(=O)[C@H](Cc1ccccc1)NC(=O)[C@@H](NC(=O)CNC(=O)[C@H](CCC(N)=O)NC(=O)C(C)(C)NC(=O)[C@@H](N)Cc1c[nH]cn1)[C@@H](C)O)[C@@H](C)O)C(C)C)[C@@H](C)O)C(C)C)C(=O)N[C@@H](C)C(=O)NC(C)(C)C(=O)NCC(N)=O
B2: Peptide 473 (peptide)
peptide: H[Aib]QGTFTSDVSK[αMeF]LDRK([AEEA-AEEA-γGlu-C18 diacid])RARDFVQWLL[Aib]E-NH2
modifications: N-terminus assumed
SMILES: CC(C)C[C@H](NC(=O)[C@H](Cc1c[nH]c2ccccc12)NC(=O)[C@H](CCC(N)=O)NC(=O)[C@@H](NC(=O)[C@H](Cc1ccccc1)NC(=O)[C@H](CC(=O)O)NC(=O)[C@H](CCCNC(=N)N)NC(=O)[C@H](C)NC(=O)[C@H](CCCNC(=N)N)NC(=O)[C@H](CCCCNC(=O)COCCOCCNC(=O)COCCOCCNC(=O)CC[C@H](NC(=O)CCCCCCCCCCCCCCCCC(=O)O)C(=O)O)NC(=O)[C@H](CCCNC(=N)N)NC(=O)[C@H](CC(=O)O)NC(=O)[C@H](CC(C)C)NC(=O)[C@](C)(Cc1ccccc1)NC(=O)[C@H](CCCCN)NC(=O)[C@H](CO)NC(=O)[C@@H](NC(=O)[C@H](CC(=O)O)NC(=O)[C@H](CO)NC(=O)[C@@H](NC(=O)[C@H](Cc1ccccc1)NC(=O)[C@@H](NC(=O)CNC(=O)[C@H](CCC(N)=O)NC(=O)C(C)(C)NC(=O)[C@@H](N)Cc1c[nH]cn1)[C@@H](C)O)[C@@H](C)O)C(C)C)C(C)C)C(=O)N[C@@H](CC(C)C)C(=O)NC(C)(C)C(=O)N[C@@H](CCC(=O)O)C(N)=O
B3: Peptide 476 (peptide)
peptide: H[Aib]QGTFTSDVSK[αMeF]LDTK([AEEA-AEEA-γGlu-C18 diacid])RAQDFVRWLLA[Aib]G-NH2
modifications: N-terminus assumed
SMILES: CC(C)C[C@H](NC(=O)[C@H](CC(C)C)NC(=O)[C@H](Cc1c[nH]c2ccccc12)NC(=O)[C@H](CCCNC(=N)N)NC(=O)[C@@H](NC(=O)[C@H](Cc1ccccc1)NC(=O)[C@H](CC(=O)O)NC(=O)[C@H](CCC(N)=O)NC(=O)[C@H](C)NC(=O)[C@H](CCCNC(=N)N)NC(=O)[C@H](CCCCNC(=O)COCCOCCNC(=O)COCCOCCNC(=O)CC[C@H](NC(=O)CCCCCCCCCCCCCCCCC(=O)O)C(=O)O)NC(=O)[C@@H](NC(=O)[C@H](CC(=O)O)NC(=O)[C@H](CC(C)C)NC(=O)[C@](C)(Cc1ccccc1)NC(=O)[C@H](CCCCN)NC(=O)[C@H](CO)NC(=O)[C@@H](NC(=O)[C@H](CC(=O)O)NC(=O)[C@H](CO)NC(=O)[C@@H](NC(=O)[C@H](Cc1ccccc1)NC(=O)[C@@H](NC(=O)CNC(=O)[C@H](CCC(N)=O)NC(=O)C(C)(C)NC(=O)[C@@H](N)Cc1c[nH]cn1)[C@@H](C)O)[C@@H](C)O)C(C)C)[C@@H](C)O)C(C)C)C(=O)N[C@@H](C)C(=O)NC(C)(C)C(=O)NCC(N)=O
B4: Peptide 472 (peptide)
peptide: H[Aib]QGTFTSDVSK[αMeF]LDKK([AEEA-AEEA-γGlu-C18 diacid])RARDFVQWLL[Aib]E-NH2
modifications: N-terminus assumed
SMILES: CC(C)C[C@H](NC(=O)[C@H](Cc1c[nH]c2ccccc12)NC(=O)[C@H](CCC(N)=O)NC(=O)[C@@H](NC(=O)[C@H](Cc1ccccc1)NC(=O)[C@H](CC(=O)O)NC(=O)[C@H](CCCNC(=N)N)NC(=O)[C@H](C)NC(=O)[C@H](CCCNC(=N)N)NC(=O)[C@H](CCCCNC(=O)COCCOCCNC(=O)COCCOCCNC(=O)CC[C@H](NC(=O)CCCCCCCCCCCCCCCCC(=O)O)C(=O)O)NC(=O)[C@H](CCCCN)NC(=O)[C@H](CC(=O)O)NC(=O)[C@H](CC(C)C)NC(=O)[C@](C)(Cc1ccccc1)NC(=O)[C@H](CCCCN)NC(=O)[C@H](CO)NC(=O)[C@@H](NC(=O)[C@H](CC(=O)O)NC(=O)[C@H](CO)NC(=O)[C@@H](NC(=O)[C@H](Cc1ccccc1)NC(=O)[C@@H](NC(=O)CNC(=O)[C@H](CCC(N)=O)NC(=O)C(C)(C)NC(=O)[C@@H](N)Cc1c[nH]cn1)[C@@H](C)O)[C@@H](C)O)C(C)C)C(C)C)C(=O)N[C@@H](CC(C)C)C(=O)NC(C)(C)C(=O)N[C@@H](CCC(=O)O)C(N)=O
B5: Peptide 470 (peptide)
peptide: H[Aib]QGTFTSDVSK[αMeF]LDKK([AEEA-AEEA-γGlu-C20 diacid])RARDFVQWLL[Aib]E-NH2
modifications: N-terminus assumed
SMILES: CC(C)C[C@H](NC(=O)[C@H](Cc1c[nH]c2ccccc12)NC(=O)[C@H](CCC(N)=O)NC(=O)[C@@H](NC(=O)[C@H](Cc1ccccc1)NC(=O)[C@H](CC(=O)O)NC(=O)[C@H](CCCNC(=N)N)NC(=O)[C@H](C)NC(=O)[C@H](CCCNC(=N)N)NC(=O)[C@H](CCCCNC(=O)COCCOCCNC(=O)COCCOCCNC(=O)CC[C@H](NC(=O)CCCCCCCCCCCCCCCCCCC(=O)O)C(=O)O)NC(=O)[C@H](CCCCN)NC(=O)[C@H](CC(=O)O)NC(=O)[C@H](CC(C)C)NC(=O)[C@](C)(Cc1ccccc1)NC(=O)[C@H](CCCCN)NC(=O)[C@H](CO)NC(=O)[C@@H](NC(=O)[C@H](CC(=O)O)NC(=O)[C@H](CO)NC(=O)[C@@H](NC(=O)[C@H](Cc1ccccc1)NC(=O)[C@@H](NC(=O)CNC(=O)[C@H](CCC(N)=O)NC(=O)C(C)(C)NC(=O)[C@@H](N)Cc1c[nH]cn1)[C@@H](C)O)[C@@H](C)O)C(C)C)C(C)C)C(=O)N[C@@H](CC(C)C)C(=O)NC(C)(C)C(=O)N[C@@H](CCC(=O)O)C(N)=O
B6: Peptide 474 (peptide)
peptide: H[Aib]QGTFTSDVSK[αMeF]LDTK([AEEA-AEEA-γGlu-C18 diacid])RARDFVQWLLA[Aib]G-NH2
modifications: N-terminus assumed
SMILES: CC(C)C[C@H](NC(=O)[C@H](CC(C)C)NC(=O)[C@H](Cc1c[nH]c2ccccc12)NC(=O)[C@H](CCC(N)=O)NC(=O)[C@@H](NC(=O)[C@H](Cc1ccccc1)NC(=O)[C@H](CC(=O)O)NC(=O)[C@H](CCCNC(=N)N)NC(=O)[C@H](C)NC(=O)[C@H](CCCNC(=N)N)NC(=O)[C@H](CCCCNC(=O)COCCOCCNC(=O)COCCOCCNC(=O)CC[C@H](NC(=O)CCCCCCCCCCCCCCCCC(=O)O)C(=O)O)NC(=O)[C@@H](NC(=O)[C@H](CC(=O)O)NC(=O)[C@H](CC(C)C)NC(=O)[C@](C)(Cc1ccccc1)NC(=O)[C@H](CCCCN)NC(=O)[C@H](CO)NC(=O)[C@@H](NC(=O)[C@H](CC(=O)O)NC(=O)[C@H](CO)NC(=O)[C@@H](NC(=O)[C@H](Cc1ccccc1)NC(=O)[C@@H](NC(=O)CNC(=O)[C@H](CCC(N)=O)NC(=O)C(C)(C)NC(=O)[C@@H](N)Cc1c[nH]cn1)[C@@H](C)O)[C@@H](C)O)C(C)C)[C@@H](C)O)C(C)C)C(=O)N[C@@H](C)C(=O)NC(C)(C)C(=O)NCC(N)=O
B7: Peptide 477 (peptide)
peptide: H[Aib]QGTFTSDVSK[αMeF]LDTK([AEEA-AEEA-γGlu-C20 diacid])RAQDFVRWLLA[Aib]G-NH2
modifications: N-terminus assumed
SMILES: CC(C)C[C@H](NC(=O)[C@H](CC(C)C)NC(=O)[C@H](Cc1c[nH]c2ccccc12)NC(=O)[C@H](CCCNC(=N)N)NC(=O)[C@@H](NC(=O)[C@H](Cc1ccccc1)NC(=O)[C@H](CC(=O)O)NC(=O)[C@H](CCC(N)=O)NC(=O)[C@H](C)NC(=O)[C@H](CCCNC(=N)N)NC(=O)[C@H](CCCCNC(=O)COCCOCCNC(=O)COCCOCCNC(=O)CC[C@H](NC(=O)CCCCCCCCCCCCCCCCCCC(=O)O)C(=O)O)NC(=O)[C@@H](NC(=O)[C@H](CC(=O)O)NC(=O)[C@H](CC(C)C)NC(=O)[C@](C)(Cc1ccccc1)NC(=O)[C@H](CCCCN)NC(=O)[C@H](CO)NC(=O)[C@@H](NC(=O)[C@H](CC(=O)O)NC(=O)[C@H](CO)NC(=O)[C@@H](NC(=O)[C@H](Cc1ccccc1)NC(=O)[C@@H](NC(=O)CNC(=O)[C@H](CCC(N)=O)NC(=O)C(C)(C)NC(=O)[C@@H](N)Cc1c[nH]cn1)[C@@H](C)O)[C@@H](C)O)C(C)C)[C@@H](C)O)C(C)C)C(=O)N[C@@H](C)C(=O)NC(C)(C)C(=O)NCC(N)=O

Biological target: human glucagon receptor (human, UniProt P47871)
Experiment: cell-based or functional assay

| cAMP production EC50 | Binder |
| --- | --- |
| 63.6 pM | H[Aib]QGTFTSDVSK[αMeF]LDRK([AEEA-AEEA-γGlu-C20 diacid])RARDFVQWLL[Aib]E-NH2 [Peptide 471] |
| 61.5 pM | B1 |
| 14.1 pM | B2 |
| 104 pM | B3 |
| 11.1 pM | B4 |
| 30.3 pM | B5 |
| 56.9 pM | B6 |
| 117 pM | B7 |

Biological target: human GLP-1 receptor (human, UniProt P43220)
Experiment: cell-based or functional assay

| cAMP production EC50 | Binder |
| --- | --- |
| 102 pM | H[Aib]QGTFTSDVSK[αMeF]LDRK([AEEA-AEEA-γGlu-C20 diacid])RARDFVQWLL[Aib]E-NH2 [Peptide 471] |
| 6.75 pM | B1 |
| 11.5 pM | B2 |
| 57.3 pM | B3 |
| 7.63 pM | B4 |
| 55.9 pM | B5 |
| 8.04 pM | B6 |
| 54.1 pM | B7 |
